Laboratory results taken from patent publication US20190077844A1 (published 2019).
Positions count from the first letter of the chain named.

B1: ADX_6077_F02 DG→SG mutant, alkylated (designed binder)
chain: VSDVPRDLEVVAATPTSLLISWSDDYHAHRYYRITYGETGGNSPVQEFTVPGEHVTATISGLKPGVDYTITVYAVTYSGEKAATDWSISINYRTPC
modifications: C-terminal cysteine alkylated
notes: also called P1-055668
B2: ADX_6077_F02 DG→DA mutant, alkylated (designed binder)
chain: GVSDVPRDLEVVAATPTSLLISWSDDYHAHRYYRITYGETGGNSPVQEFTVPGEHVTATISGLKPGVDYTITVYAVTYDAEKAATDWSISINYRTPC
modifications: C-terminal cysteine alkylated
notes: also called P1-055660
B3: ADX_6077_F02 DG→AG mutant, alkylated (designed binder)
chain: B2 chain with D79A, A80G
modifications: C-terminal cysteine alkylated
notes: also called P1-055669
B4: ADX_6077_F02 DG→DL mutant, alkylated (designed binder)
chain: B2 chain with A80L
modifications: C-terminal cysteine alkylated
notes: also called P1-055671
B5: ADX_6077_F02 DG→GG mutant, alkylated (designed binder)
chain: B2 chain with D79G, A80G
modifications: C-terminal cysteine alkylated
notes: also called P1-055670
B6: ADX_6077_F02 DG→DV mutant, alkylated (designed binder)
chain: B2 chain with A80V
modifications: C-terminal cysteine alkylated
notes: also called P1-055672
B7: ADX_6077_F02 DG→EG mutant, alkylated (designed binder)
chain: B2 chain with D79E, A80G
modifications: C-terminal cysteine alkylated
notes: also called P1-055673
B8: ADX_6077_F02 DG→DS mutant, alkylated (designed binder)
chain: B2 chain with A80S
modifications: C-terminal cysteine alkylated
notes: also called P1-055667

These binders were tested against T1, Recombinant human glypican-3 (aa 1-559), His-tagged (R&D Systems) (human, UniProt P51654 25-559) (assay: SPR 1-point off-rate, ratio to parental ADX_6077_F02).
T1 construct: also called huGPC3; human GPC3
Protocol: (§1) Surface plasmon resonance (SPR) was performed to calculate off-rates (kd) and binding affinities of α-GPC3 adnectins and tubulysin-conjugated AdxDCs using a Biacore T100 instrument (GE Healthcare). […] SPR experiments were conducted at 37° C. using HBS-P+(10 mM HEPES, 150 mM NaCl, 0.05% (v/v) Surfactant P20, pH 7.4) running buffer (GE Healthcare). […] For off-rate measurements, single 200 nM adnectin/AdxDC concentrations were injected using identical conditions. One 30s injection of 10 mM glycine pH 1.7 was used to remove bound adnectin and regenerate the GPC₃ surfaces between assay cycles.
(§2) Rate constants kₐ (kₒₙ) and kd (koff) were derived from reference-subtracted sensorgrams fit to a 1:1 binding model in Biacore T100 Evaluation Software v2.0.4 (GE Healthcare). The affinity constant, KD was calculated from the ratio of rate constants kd/kₐ.
(§3) One-hundred to one-hundred-fifty milligrams of each of the eight mutants was made, purified and alkylated as previously above. Three to five milligrams of each of eight alkylated variants at 1-3 mg/mL were subjected to SEC, DSC, GPC3 binding (SPR 1 pt off-rates), MS and HIC.

T1 sequence (P51654 other isoform, or with tags, fused parts or gaps): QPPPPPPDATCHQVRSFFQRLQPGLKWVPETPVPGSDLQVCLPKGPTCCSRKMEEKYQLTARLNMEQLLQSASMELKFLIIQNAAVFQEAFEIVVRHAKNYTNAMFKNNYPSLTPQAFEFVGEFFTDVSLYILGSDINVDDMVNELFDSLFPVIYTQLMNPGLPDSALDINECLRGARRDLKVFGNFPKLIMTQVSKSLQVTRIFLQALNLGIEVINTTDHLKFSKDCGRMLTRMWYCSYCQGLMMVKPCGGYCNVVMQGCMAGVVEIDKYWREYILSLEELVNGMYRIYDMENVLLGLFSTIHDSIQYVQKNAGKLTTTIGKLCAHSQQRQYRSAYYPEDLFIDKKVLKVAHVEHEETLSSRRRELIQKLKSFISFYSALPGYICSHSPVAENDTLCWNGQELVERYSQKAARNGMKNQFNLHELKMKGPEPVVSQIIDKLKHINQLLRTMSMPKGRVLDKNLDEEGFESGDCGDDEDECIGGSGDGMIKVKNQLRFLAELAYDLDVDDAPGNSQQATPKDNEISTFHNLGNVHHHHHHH

Binder | huGPC3 koff (mut/par)
B1 | 5.2 ratio mutant/parent
B2 | 3.9 ratio mutant/parent
B3 | 5.9 ratio mutant/parent
B4 | 3.6 ratio mutant/parent
B5 | 14 ratio mutant/parent
B6 | 7.9 ratio mutant/parent
B7 | 5.4 ratio mutant/parent
B8 | 3.5 ratio mutant/parent

These binders were tested against T2, Recombinant murine glypican-3 (aa 25-557) (R&D Systems) (murine, UniProt Q8CFZ4 25-557) in the same assay as above.
T2 construct: also called muGPC3; murine GPC3
Protocol: as §1, §2, §3

T2 sequence (Q8CFZ4 25-557 limits assumed, form in doubt): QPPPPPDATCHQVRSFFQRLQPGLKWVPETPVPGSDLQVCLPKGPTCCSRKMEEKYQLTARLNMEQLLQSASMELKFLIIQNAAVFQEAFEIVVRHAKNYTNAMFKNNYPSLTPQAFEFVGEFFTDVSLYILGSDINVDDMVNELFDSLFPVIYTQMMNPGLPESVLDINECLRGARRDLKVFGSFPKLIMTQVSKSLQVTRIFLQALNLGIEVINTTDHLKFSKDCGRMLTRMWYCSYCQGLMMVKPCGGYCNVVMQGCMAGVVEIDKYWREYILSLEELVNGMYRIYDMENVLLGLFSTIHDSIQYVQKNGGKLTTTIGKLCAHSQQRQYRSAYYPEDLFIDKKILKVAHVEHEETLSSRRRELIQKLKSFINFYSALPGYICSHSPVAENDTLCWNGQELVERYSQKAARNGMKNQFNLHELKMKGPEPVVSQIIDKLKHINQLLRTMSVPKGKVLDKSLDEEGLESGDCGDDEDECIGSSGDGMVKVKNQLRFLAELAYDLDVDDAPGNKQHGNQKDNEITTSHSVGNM

Binder | muGPC3 koff (mut/par)
B1 | 4.8 ratio mutant/parent
B2 | 3.7 ratio mutant/parent
B3 | 5.5 ratio mutant/parent
B4 | 3.1 ratio mutant/parent
B5 | 12 ratio mutant/parent
B6 | 7 ratio mutant/parent
B7 | 5.1 ratio mutant/parent
B8 | 3.3 ratio mutant/parent

These binders were tested against T3, Human glypican-3 on cells (Huh7, Hep3B, H446, HepG2; Hep3B xenograft tissue) (human, UniProt P51654 25-554) (assay: flow cytometry on Huh7 cells, EC50 ratio to parent Adnectin).
T3 construct: Endogenous GPC3 of human tumor cell lines; also called huGPC3 on cells; GPC3 receptor
Protocol: The binding of DG variants to huGPC3 in DG GPC3 AdxDCs mutants were evaluated by flow cytometry for binding to Huh7 carcinoma cells grown in DMEM media with 10% FBS. Cells were harvested using Versene, an EDTA cell dissociation solution from Lonza, Cat. #17-711E. Tumor cells (1E5 cells/reaction) were suspended in FACS buffer (PBS, 1% BSA, 0.05% Na Azide) and mixed with a serial dilution of AdxDC for one hour on ice. Cells were washed three times with FACS buffer, and bound AdxDC was detected with an in house anti-scaffold monoclonal Ab and PE-conjugated Antibody from (RnD Systems), cat#NL007, and read on a flow cytometer.

T3 sequence (P51654 25-554 limits assumed): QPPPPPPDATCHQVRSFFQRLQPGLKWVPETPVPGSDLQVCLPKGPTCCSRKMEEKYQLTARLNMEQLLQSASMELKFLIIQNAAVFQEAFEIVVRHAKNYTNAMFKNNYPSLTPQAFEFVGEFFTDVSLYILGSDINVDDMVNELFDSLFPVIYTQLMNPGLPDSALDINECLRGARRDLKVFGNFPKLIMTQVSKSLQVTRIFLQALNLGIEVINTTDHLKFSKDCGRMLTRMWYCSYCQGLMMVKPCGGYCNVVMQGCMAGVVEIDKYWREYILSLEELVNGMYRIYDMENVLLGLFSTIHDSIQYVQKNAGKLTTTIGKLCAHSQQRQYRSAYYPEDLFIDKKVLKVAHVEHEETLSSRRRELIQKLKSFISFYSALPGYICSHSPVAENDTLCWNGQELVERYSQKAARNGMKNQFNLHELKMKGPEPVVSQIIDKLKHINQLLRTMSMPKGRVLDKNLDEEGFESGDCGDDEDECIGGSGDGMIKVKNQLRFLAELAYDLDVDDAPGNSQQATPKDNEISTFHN

Binder | huGPC3 on cells EC50 (mutant/parent)
B1 | 1.1 ratio mutant/parent
B2 | 1.3 ratio mutant/parent
B3 | 1.1 ratio mutant/parent
B4 | 1.7 ratio mutant/parent
B7 | 1.6 ratio mutant/parent
B8 | 1.4 ratio mutant/parent
